From IntAct's records for PubMed 21642957

B1: Serine/threonine-protein kinase Nek9 (Homo sapiens), Q8TD19 (parent)
chain: MSVLGEYERHCDSINSDFGSESGGCGDSSPGPSASQGPRAGGGAAEQEELHYIPIRVLGRGAFGEATLYRRTEDDSLVVWKEVDLTRLSEKERRDALNEIVILALLQHDNIIAYYNHFMDNTTLLIELEYCNGGNLYDKILRQKDKLFEEEMVVWYLFQIVSAVSCIHKAGILHRDIKTLNIFLTKANLIKLGDYGLAKKLNSEYSMAETLVGTPYYMSPELCQGVKYNFKSDIWAVGCVIFELLTLKRTFDATNPLNLCVKIVQGIRAMEVDSSQYSLELIQMVHSCLDQDPEQRPTADELLDRPLLRKRRREMEEKVTLLNAPTKRPRSSTVTEAPIAVVTSRTSEVYVWGGGKSTPQKLDVIKSGCSARQVCAGNTHFAVVTVEKELYTWVNMQGGTKLHGQLGHGDKASYRQPKHVEKLQGKAIRQVSCGDDFTVCVTDEGQLYAFGSDYYGCMGVDKVAGPEVLEPMQLNFFLSNPVEQVSCGDNHVVVLTRNKEVYSWGCGEYGRLGLDSEEDYYTPQKVDVPKALIIVAVQCGCDGTFLLTQSGKVLACGLNEFNKLGLNQCMSGIINHEAYHEVPYTTSFTLAKQLSFYKIRTIAPGKTHTAAIDERGRLLTFGCNKCGQLGVGNYKKRLGINLLGGPLGGKQVIRVSCGDEFTIAATDDNHIFAWGNGGNGRLAMTPTERPHGSDICTSWPRPIFGSLHHVPDLSCRGWHTILIVEKVLNSKTIRSNSSGLSIGTVFQSSSPGGGGGGGGGEEEDSQQESETPDPSGGFRGTMEADRGMEGLISPTEAMGNSNGASSSCPGWLRKELENAEFIPMPDSPSPLSAAFSESEKDTLPYEELQGLKVASEAPLEHKPQVEASSPRLNPAVTCAGKGTPLTPPACACSSLQVEVERLQGLVLKCLAEQQKLQQENLQIFTQLQKLNKKLEGGQQVGMHSKGTQTAKEEMEMDPKPDLDSDSWCLLGTDSCRPSL

Variants of: B1
Conditions: with plk1_human PLK1, P53350
plk1_human PLK1, P53350, sequence (P53350 whole entry): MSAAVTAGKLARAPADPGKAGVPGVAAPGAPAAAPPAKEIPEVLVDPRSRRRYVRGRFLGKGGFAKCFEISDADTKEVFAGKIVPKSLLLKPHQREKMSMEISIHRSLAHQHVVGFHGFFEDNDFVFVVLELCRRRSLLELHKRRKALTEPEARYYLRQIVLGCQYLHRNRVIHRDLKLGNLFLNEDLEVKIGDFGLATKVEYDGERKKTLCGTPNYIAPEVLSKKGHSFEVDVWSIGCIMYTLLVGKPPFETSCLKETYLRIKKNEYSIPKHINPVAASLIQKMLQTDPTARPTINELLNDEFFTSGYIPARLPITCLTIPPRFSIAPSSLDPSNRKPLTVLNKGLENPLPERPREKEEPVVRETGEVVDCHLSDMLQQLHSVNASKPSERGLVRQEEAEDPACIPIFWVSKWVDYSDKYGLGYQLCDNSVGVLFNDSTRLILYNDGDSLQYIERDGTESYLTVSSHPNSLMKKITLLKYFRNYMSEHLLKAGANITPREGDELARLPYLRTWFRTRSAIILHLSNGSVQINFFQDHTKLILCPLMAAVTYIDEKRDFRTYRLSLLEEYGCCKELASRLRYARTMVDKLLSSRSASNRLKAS

Variant | effect of a mutation on the interaction
S750A | decreasing interaction

Variants of: B1
Conditions: with plk1_human PLK1, P53350
Remark: another data set of the same source

Variant | effect of a mutation on the interaction
S869A | disrupting interaction
